Experimental findings from paper PMC5234717 (Journal of Lipid Research, 2016) are described below.

In data set [1] the target is T1, S1PL2025 (Burkholderia pseudomallei, UniProt Q63IP4).
T1 construct: gene BPSS2025

In data set [2] the target is T1, S1PL2025. This is another data set of the same source.
Data set [3] concerns CCCCCCCCCCCCC/C=C/C=O. The data set is described as follows: purified protein. The settings on record: pH 7.5; 37.0 °C.

T1 sequence (Q63IP4 35-507 limits assumed): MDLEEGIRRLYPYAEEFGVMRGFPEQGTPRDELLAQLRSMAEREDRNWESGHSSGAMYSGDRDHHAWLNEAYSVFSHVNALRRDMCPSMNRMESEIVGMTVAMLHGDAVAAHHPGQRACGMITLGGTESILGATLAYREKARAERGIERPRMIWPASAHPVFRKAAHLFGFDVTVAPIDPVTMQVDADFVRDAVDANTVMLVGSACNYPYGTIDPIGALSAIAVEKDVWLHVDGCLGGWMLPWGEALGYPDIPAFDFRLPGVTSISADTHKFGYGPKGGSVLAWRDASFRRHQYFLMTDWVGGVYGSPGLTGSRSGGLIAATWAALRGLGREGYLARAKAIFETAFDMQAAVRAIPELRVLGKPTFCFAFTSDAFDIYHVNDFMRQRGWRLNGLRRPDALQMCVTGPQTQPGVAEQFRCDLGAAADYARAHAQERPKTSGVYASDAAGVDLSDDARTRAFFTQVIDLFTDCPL

Take `NCCOP(=O)(O)O` [PE]: the “UV-vis spectroscopy of PLP” value in data set [1] is “UV-vis analysis of the binding of S1P and PE to the S1PL2025 enzyme”.

Consider `Cc1ncc(COP(=O)(O)O)c(C=O)c1O` [PLP], for which the UV-vis spectroscopy result in data set [2] is reported as “A similar PLP binding spectrum was observed with S1PL2025”. With FALDH (Homo sapiens), in data set [3], the Km came to 19.4 ± 3.2 µM, the Vmax worked out at 0.315 µmol/min/mg and the kcat/Km was 11300 M⁻¹ s⁻¹.

As a reminder, the Km is the substrate concentration at which the rate is half of its maximum. Usually Vmax stands for the top rate of the reaction or transport when substrate is in excess. By kcat/Km is commonly meant the turnover number divided by the Michaelis constant.
